Test results published in patent US12715909 (ENTHERA S R L, dated 2026).

T1: human IGFBP1 (human, UniProt P08833 26-259)
T1 construct: Bought protein
T1 sequence (looked up): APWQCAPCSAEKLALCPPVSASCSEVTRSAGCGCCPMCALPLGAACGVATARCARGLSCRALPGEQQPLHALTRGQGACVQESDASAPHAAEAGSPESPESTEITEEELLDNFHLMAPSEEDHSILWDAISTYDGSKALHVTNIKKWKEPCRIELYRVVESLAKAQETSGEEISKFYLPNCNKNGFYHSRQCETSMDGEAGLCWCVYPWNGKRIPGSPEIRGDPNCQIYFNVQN

T2: human IGFBP2 (human, UniProt P18065 37-325, limits assumed)
T2 construct: Bought protein
T2 sequence (looked up): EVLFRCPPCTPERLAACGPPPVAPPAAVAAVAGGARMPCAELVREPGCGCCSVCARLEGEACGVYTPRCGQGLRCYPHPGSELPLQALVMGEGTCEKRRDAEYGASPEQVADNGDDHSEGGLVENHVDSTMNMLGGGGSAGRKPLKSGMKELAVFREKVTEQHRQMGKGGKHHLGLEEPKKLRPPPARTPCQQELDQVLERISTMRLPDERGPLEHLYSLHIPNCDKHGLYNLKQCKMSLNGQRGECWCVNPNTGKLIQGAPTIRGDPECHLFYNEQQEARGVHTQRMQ

T3: human IGFBP4 (human, UniProt P22692 22-258)
T3 construct: Bought protein
T3 sequence (looked up): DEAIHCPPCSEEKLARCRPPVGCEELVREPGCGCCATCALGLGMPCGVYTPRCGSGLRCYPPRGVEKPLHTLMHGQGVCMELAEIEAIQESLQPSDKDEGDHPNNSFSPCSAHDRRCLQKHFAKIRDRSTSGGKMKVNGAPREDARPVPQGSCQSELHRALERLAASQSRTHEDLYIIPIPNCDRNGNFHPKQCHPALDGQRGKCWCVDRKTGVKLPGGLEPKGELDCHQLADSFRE

T4: human IGFBP6 (human, UniProt P24592 28-240, limits assumed)
T4 construct: Bought protein
T4 sequence (looked up): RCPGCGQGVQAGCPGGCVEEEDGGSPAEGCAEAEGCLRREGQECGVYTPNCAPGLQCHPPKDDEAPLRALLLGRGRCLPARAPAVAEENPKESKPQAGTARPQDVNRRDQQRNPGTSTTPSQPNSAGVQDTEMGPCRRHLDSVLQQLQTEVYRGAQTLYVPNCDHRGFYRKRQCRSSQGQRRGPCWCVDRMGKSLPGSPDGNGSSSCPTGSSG


How the values were obtained:
[1] = target: T5, human IGFBP5 (human, UniProt P24593 21-272); experiment: ELISA, scFv, secondary screening
T5 construct: Bought protein; in BLI it was in solution; also called hIGFBP-5
T5 sequence (P24593 21-272 limits assumed): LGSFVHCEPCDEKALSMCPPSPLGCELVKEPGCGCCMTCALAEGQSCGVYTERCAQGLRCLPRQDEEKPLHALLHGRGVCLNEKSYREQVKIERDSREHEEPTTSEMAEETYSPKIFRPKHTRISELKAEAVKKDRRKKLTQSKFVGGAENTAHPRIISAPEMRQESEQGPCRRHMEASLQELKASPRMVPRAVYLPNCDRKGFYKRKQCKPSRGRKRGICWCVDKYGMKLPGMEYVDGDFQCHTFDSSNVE
Procedure: (§1) At the end of the discovery process, each selection output was screened for antigen-specific antibodies and the binding characteristics of monoclonal antibody clones was analysed. For this purpose, 3072 single colonies were used for scFv antibody production. […] 192 of those ELISA positive clones were selected for a secondary screening. For that purpose, a second batch of scFv were produced and tested on a broader panel of antigens: Streptavidin+biotinylated human IGFBP5, Streptavidin+biotinylated murine IGFBP5, Streptavidin, BSA, Human IGFBP1, Human IGFBP2, Human IGFBP3, Human IGFBP4, Human IGFBP5 and Human IGFBP6. […] Binding to human IGFBP1, human IGFBP2, human IGFBP3, human IGFBP4 and human IGFBP6 was not detected. […] The scFv DNA sequence was amplified by PCR and cloned into YUMAB's mammalian scFv-Fc expression vector, resulting in a genetic fusion of the scFv with a human IgG4 Fc. Bacterial clones with a correctly cloned scFv gene were used for isolation of transfection grade DNA. The DNA was used for the transient transfection of HEK cells which produced and secreted the antibody into the culture medium. The antibodies were purified by affinity chromatography (Protein A) and re-buffered in PBS. The protein concentration was determined by UV/VIS spectrometry and purity was checked by Coomassie staining. 13 of the 15 antibodies could be successfully produced in the scFv-Fc format.

[2] = target: T6, mouse IGFBP5 (mouse, UniProt Q07079 20-271); experiment: ELISA, scFv, secondary screening
T6 construct: Bought protein; in solution in BLI; also called mIGFBP-5; murine IGFBP5
T6 sequence (Q07079 20-271 limits assumed): as the sequence (P24593 21-272 limits assumed) above, with R87G, V90T, I116V, I157V, S159P, L183F, T245A counted along it
Procedure: as §1

[3] = target: T1, human IGFBP1; experiment: ELISA, scFv, secondary screening
Procedure: as §1

[4] = target: T2, human IGFBP2; experiment: ELISA, scFv, secondary screening
Procedure: as §1

[5] = target: T7, human IGFBP3 (human, UniProt P17936 28-291); experiment: ELISA, scFv, secondary screening
T7 construct: Bought protein
T7 sequence (P17936 28-291 limits assumed): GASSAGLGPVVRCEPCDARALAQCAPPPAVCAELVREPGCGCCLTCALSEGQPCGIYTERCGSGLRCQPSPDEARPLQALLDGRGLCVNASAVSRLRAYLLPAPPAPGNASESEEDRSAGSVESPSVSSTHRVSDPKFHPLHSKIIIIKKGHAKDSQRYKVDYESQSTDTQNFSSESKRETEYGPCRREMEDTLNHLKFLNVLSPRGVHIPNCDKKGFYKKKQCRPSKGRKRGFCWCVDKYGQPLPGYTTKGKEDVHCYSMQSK
Procedure: as §1

[6] = target: T3, human IGFBP4; experiment: ELISA, scFv, secondary screening
Procedure: as §1

[7] = target: T4, human IGFBP6; experiment: ELISA, scFv, secondary screening
Procedure: as §1

[8] = target: T5, human IGFBP5; experiment: BLI (Octet/BLItz), mAb captured via Fc on AHC biosensor, antigen in solution
Procedure: (§2) To assess the binding affinity in more detail, affinity measurements were performed using Biomolecular Interaction Analysis performed by an Octet platform (BLItz System), which is a Biolayer Interferometry (BLI) platform. To establish the assay, the target monoclonal antibody (mAb, 2 identical antigen binding moieties, 2 μg/ml in 1% BSA containing 0.05% Tween 20) was immobilized via Fc on the via AHC biosensor and the interaction with the antigen human IGFBP5 (R&D, cat n° 875-B5) and mouse IGFBP5 (R&D, cat n° 578-B5) at different concentration were measured.

[9] = target: T6, mouse IGFBP5; experiment: as above
Procedure: as §2

| binding result [1] | binding result [2] | binding result [3] | binding result [4] | binding result [5] | binding result [6] | binding result [7] | Kd [8] [nM] | Kd [9] [nM] | Binder |
| --- | --- | --- | --- | --- | --- | --- | --- | --- | --- |
| binds | binds | no binding | no binding | no binding | no binding | no binding |  |  | A09 scFv (scFv, V domains shown) VH: QVQLVESGAEVKKPGASVKVSCKASGYTFTSYGISWVRQAPGQGLEWMGWISAYNGNTNYAQKLQGRVTMTTDTSTSTAYMELRSLRSDDTAVYYCAREWELLGGLDYWGQGTLVTVSS VL: QSALTQPASVSGSPGQSITISCTGTSSDVGGYNYVSWYQQHPGKAPKLMIYEVSNRPSGVSNRFSGSKSGNTASLTISGLQAEDEADYYCSSYTSSSTVVFGGGTKLTVL |
|  |  |  |  |  |  |  | 0.1 | 0.1 | B09 full length mAb (antibody, V domains shown, also called anti-IGFBP5 mAb B09) VH: QVQLVQSGAEVKKPGASVKVSCKASGYTFTSYGISWVRQAPGQGLEWMGWISAYNGNTNYAQKLQGRVTMTTDTSTSTAYMELRSLRSDDTAVYYCARDLAVGTHGDYWGQGTLVTVSS VL: QSALTQPASVSGSPGQSITISCTGTSSDVGGYNYVSWYQQHPGKAPKLMIYEVSNRPSGVSNRFSGSKSGNTASLTISGLQAEDEADYYCSSYTSSSTLEVVFGGGTKLTVL |
| binds | binds | no binding | no binding | no binding | no binding | no binding |  |  | G01 scFv (scFv, V domains shown, scFv as screened by ELISA) VH: QVQLVQSGAEVKKPGSSVKVSCKASGGTFSSYAISWVRQAPGQGLEWMGGIIPIFGTANYAQKFQGRVTITADESTSTAYMELSSLRSEDTAVYYCASITEGAFDYWGQGTLVTVSS VL: AIQLTQSPSTLSASVGDRVTITCRASRTVGSWLAWYQQKPGKAPKLLIYDASNLQSGVPSRFSGSGSGTEFTLTISSLQPDDLSTYYCQQYNSSPYTFGQGTKVEIK |
